Key:
Assay in all cases: EMSA
[1] = tested on: MsrR (Corynebacterium glutamicum); conditions: no oxidant; apparent KD; 10 mM Tris-HCl pH 7.4 (Fig 4 legend says pH 8.0 for the H2O2/DTT test), 5 mM MgCl2, 50 mM KCl, 5% glycerol, 0.1% NP40, 1 ug poly(dI:dC), 40 ng DNA in 20 ul …
[2] = tested on: MsrR:C62S (Corynebacterium glutamicum); conditions: no H2O2; unit inferred, nM from context; apparent KD; 10 mM Tris-HCl pH 7.4 (Fig 4 legend says pH 8.0 for the H2O2/DTT test), 5 mM MgCl2, 50 mM KCl, 5% glycerol, 0.1% NP40, 1 ug poly(dI:dC), 40 ng DNA in 20 ul …
[3] = tested on: T1, MsrR:C62S C62S (Corynebacterium glutamicum), ORF:1371e9c5; conditions: 10 mM Tris-HCl pH 7.4 (Fig 4 legend says pH 8.0 for the H2O2/DTT test), 5 mM MgCl2, 50 mM KCl, 5% glycerol, 0.1% NP40, 1 ug poly(dI:dC), 40 ng DNA in 20 ul …
T1 sequence: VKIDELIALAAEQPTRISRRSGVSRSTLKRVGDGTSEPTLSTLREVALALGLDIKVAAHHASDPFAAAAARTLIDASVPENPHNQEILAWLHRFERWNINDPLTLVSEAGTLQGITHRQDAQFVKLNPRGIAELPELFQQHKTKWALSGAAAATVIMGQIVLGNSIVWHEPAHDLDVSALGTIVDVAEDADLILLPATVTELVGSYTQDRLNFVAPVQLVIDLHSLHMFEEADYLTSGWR

Substance | Kd [1] [nM] | Kd [2] [nM] | Kd [3] [nM] | binding [3]
PmsrR | 17 | 23.1 |  | 
GTGGACACGGGGTGTCTCCTAAAGATGGGGAGCAAAAACCCTCAAACTGCTGCTAAAAATACAGGATTGGCGCCCGTGACGCTACTGAAAAGGTGGAGGGGCGCGTCGAAAAGCGTTGGCCGGTGCCTGAGCGAAAAACCGTGATGATTAGCATGGTTTGTT (double strand) [PmsrR] |  |  | 23.1 | binds
